# From patent publication US20250074999A1 (PENTIXAPHARM, published 2025)
# T1: O-glycosylated LYPD3-STP-ECD (expressed in and purified from NM-F9 cells) (human, UniProt O95274 234-303, O-glycosylated on Ser/Thr by NM-F9 cells: predominantly TF (Galβ1-3GalNAcα1-), lower amounts of Tn)
# T1 construct: also called NM-F9-derived LYPD3-STP; STP-rich C-terminal part of the ECD; not shown: fusion partner for purification and detection, e.g. Twin-Strep-tag, MBL or polyhistidine tag; which one and at which end
# T1 sequence: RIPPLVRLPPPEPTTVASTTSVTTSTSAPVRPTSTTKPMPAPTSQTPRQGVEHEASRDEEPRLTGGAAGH
# Target: T1, O-glycosylated LYPD3-STP-ECD (expressed …)
# Assay: ELISA and flow cytometry (FIGS. 14, 15 and 16)
# Experimental: Briefly, differently glycosylated and non-glycosylated protein antigens or glycans conjugated to carbohydrate-polyacrylamide conjugates (carbohydrate PAA-conjugates, GlycoNZ) were coated to 96-well plates overnight, unspecific binding was blocked and test antibody samples were added. In some assays an anti-huLYPD3 huIgG1 control monoclonal Ab was used, that was purified from CHO cell supernatant after expression of the antibody sequence derived from patent application WO 2011/070088 A1 (SEQ ID NOs: 51 and 52 of WO 2011/070088) (“aLYPD3 mAb”). This control anti-huLYPD3 antibody binds to the extracellular domain of human LYPD3 in a glycosylation-independent manner. To control protein antigen coating to the ELISA plates anti-huLYPD3 rabbit polyclonal antibody (R&D Systems, cat. no. AF5428) (“aLYPD3 pAb”) or a-MBL antibody (Novusbio) (“aMBL”) for constructs expressed as MBL fusion protein were used. Antibodies recognizing specific glycan structures were used to detect glycosylation of the coated proteins. Anti-TFa (“aTF”) antibody clone HH8 was kindly provided by Prof. Clausen, University of Copenhagen. Antibodies specifically recognizing Tn (“aTn”) were either purchased from SBH Sciences or also provided by Prof. Clausen, University of Copenhagen (clone 5F4). Afterwards, peroxidase conjugated anti-IgG secondary antibody was added, followed by 3,3′,5,5′-tetramethylbenzidine (TMB) substrate reaction. Antibody binding rates were determined by measurement absorbance at 450 nm and 620 or 630 nm as reference wavelength using a multimode microplate reader (PerkinElmer EnSpire 2300 or Tecan Spark).
# Binding of aLYPD3 clones to cell lines with different glycosylation status of LYPD3 was tested. LYPD3-transfected NM-F9 (LYPD3-F9), expressing LYPD3 carrying non-sialylated O-glycans, not transfected NM-F9 (corresponding WT cells), expressing endogenous level of LYPD3, and LYPD3-transfected HEK-O-glyc KO (LYPD3-HEK-O-glyc. KO) expressing LYPD3 without O-glycans, were stained with aLYPD3 clones and detected via fluorophore-coupled anti-human-IgG secondary reagent. Expression of LYPD3 and TFa was confirmed using control aLYPD3 pAb and mAb and aTF mAb. To determine background staining, an irrelevant hIgG1 control was included. DAPI was used to discriminate live from dead cells. Cells were analyzed using a Canto II (BD) flow cytometer.
row,Binder,binding result
1,"21E9-222 (antibody, V domains shown, Humanized 21E9; also called humanized aLYPD3 antibody 21E9-222) VH: EVQLVESGGGLVQPGGSLRLSCAASGFDFSNYYYMCWVRQAPGKGLEWVSCIAAGSGGYTYYASWAKGRFTISRDNSKNTLYLQMNSLRAEDTAVYYCASSGDYKGFNLWGQGTLVTVS VL: DIVMTQSPSSLSASVGDRVTITCQASQSISSYLAWYQQKPGKPPKLLIYGASNLASGVPSRFSGSGSGTDFTLTISSLQPEDVATYYCQGYYYSFSDIFAFGGGTKVEI",binds
2,"21E9-227 (antibody, V domains shown, Humanized 21E9; also called humanized aLYPD3 antibody 21E9-227) VH: QVQLVESGGGLVKPGGSLRLSCAASGFDFSNYYYMCWIRQAPGKGLEWVSCIAAGSGGYTYYASWAKGRFTISRDNAKNSLYLQMNSLRAEDTAVYYCASSGDYKGFNLWGQGTLVTVS VL: AIRIAQSPSSLSASTGDRVTITCQASQSISSYLAWYQQKPGKAPKLLIYGASNLASGVPSRFSGSGSGTDFTLTISCLQSEDFATYYCQGYYYSFSDIFAFGQGTKVEI",binds
3,"21E9-228 (antibody, V domains shown, Humanized 21E9; also called humanized aLYPD3 antibody 21E9-228) VH: QVQLQESGGGLVQPGGSLRLSCAASGFDFSNYYYMCWVRQAPGKGLEWVLCIAAGSGGYTYYASWAKGRFTISRDNSKNTLYLQMNSLRAEDTAIYYCASSGDYKGFNLWGQGTLVTVS VL: AIRIAQSPSSLSASTGDRVTITCQASQSISSYLAWYQQKPGKAPKLLIYGASNLASGVPSRFSGSGSGTDFTLTISCLQSEDFATYYCQGYYYSFSDIFAFGQGTKVEI",binds
4,"21E9-219 (antibody, V domains shown, Humanized 21E9; also called humanized aLYPD3 antibody 21E9-219) VH: LVQLVESGGGLVKPGGSLRLSCAASGFDFSNYYYMCWIRQAPGKGLEWVSCIAAGSGGYTYYASWAKGRFTISRDNAKNSLYLQMNSLRAEDTAVWYCASSGDYKGFNLWGQGTLVTVS VL: DIVMTQSPSSLSASVGDRVTITCQASQSISSYLAWYQQKPGKPPKLLIYGASNLASGVPSRFSGSGSGTDFTLTISSLQPEDVATYYCQGYYYSFSDIFAFGGGTKVEI",binds
5,"21E9-224 (antibody, V domains shown, Humanized 21E9; also called humanized aLYPD3 antibody 21E9-224) VH: EVQLVESGGGLVQPGGSLRLSCAASGFDFSNYYYMCWVRQAPGKGLEWVSCIAAGSGGYTYYASWAKGRFTISRDNSKNTLYLQMNSLRAEDTAVYYCASSGDYKGFNLWGQGTLVTVS VL: EIVMTQSPSSLSASVGDRVTITCQASQSISSYLAWYQQKPGKAPKLLIYGASNLASGVPSRFSGSGSGTDFTLTISSLQPEDFATYYCQGYYYSFSDIFAFGGGTKVEI",binds
6,"21E9-226 (antibody, V domains shown, Humanized 21E9; also called humanized aLYPD3 antibody 21E9-226) VH: EVQLVESGGGLVQPGGSLRLSCAASGFDFSNYYYMCWVRQAPGKGLEWVSCIAAGSGGYTYYASWAKGRFTISRDNSKNTLYLQMNSLRAEDTAVYYCASSGDYKGFNLWGQGTLVTVS VL: EIVMTQSPSSLSASVGDRVTITCQASQSISSYLAWYQQKPGKPPKLLIYGASNLASGVPSRFSGSGSGTDFTLTISSLQPEDVATYYCQGYYYSFSDIFAFGGGTKLEI",binds
7,"21E9-221 (antibody, V domains shown, Humanized 21E9; also called humanized aLYPD3 antibody 21E9-221) VH: EVQLVESGGGLVQPGGSLRLSCAASGFDFSNYYYMCWVRQAPGKGLEWVSCIAAGSGGYTYYASWAKGRFTISRDNSKNTLYLQMNSLRAEDTAVYYCASSGDYKGFNLWGQGTMVTVS VL: DIVMTQSPSSLSASVGDRVTITCQASQSISSYLAWYQQKPGKPPKLLIYGASNLASGVPSRFSGSGSGTDFTLTISSLQPEDVATYYCQGYYYSFSDIFAFGGGTKVEI",binds
8,"21E9-225 (antibody, V domains shown, Humanized 21E9; also called humanized aLYPD3 antibody 21E9-225) VH: EVQLVESGGGLVQPGGSLRLSCAASGFDFSNYYYMCWVRQAPGKGLEWVSCIAAGSGGYTYYASWAKGRFTISRDNSKNTLYLQMNSLRAEDTAVYYCASSGDYKGFNLWGQGTLVTVS VL: AIRIAQSPSSLSASTGDRVTITCQASQSISSYLAWYQQKPGKAPKLLIYGASNLASGVPSRFSGSGSGTDFTLTISCLQSEDFATYYCQGYYYSFSDIFAFGQGTKVEI",binds
9,"21E9-220 (antibody, V domains shown, Humanized 21E9; also called humanized aLYPD3 antibody 21E9-220) VH: QVQLQESGGGLVQPGGSLRLSCAASGFDFSNYYYMCWVRQAPGKGLEWVLCIAAGSGGYTYYASWAKGRFTISRDNSKNTLYLQMNSLRAEDTAIYYCASSGDYKGFNLWGQGTLVTVS VL: DIVMTQSPSSLSASVGDRVTITCQASQSISSYLAWYQQKPGKPPKLLIYGASNLASGVPSRFSGSGSGTDFTLTISSLQPEDVATYYCQGYYYSFSDIFAFGGGTKVEI",binds
